Experimental data reported in publication PMC12780214 (NPJ Vaccines, 2025).

T1: NiVM G head domain (residues 176-602) (Nipah virus Malaysia (NiVM), UniProt Q9IH62 176-602)
T1 sequence: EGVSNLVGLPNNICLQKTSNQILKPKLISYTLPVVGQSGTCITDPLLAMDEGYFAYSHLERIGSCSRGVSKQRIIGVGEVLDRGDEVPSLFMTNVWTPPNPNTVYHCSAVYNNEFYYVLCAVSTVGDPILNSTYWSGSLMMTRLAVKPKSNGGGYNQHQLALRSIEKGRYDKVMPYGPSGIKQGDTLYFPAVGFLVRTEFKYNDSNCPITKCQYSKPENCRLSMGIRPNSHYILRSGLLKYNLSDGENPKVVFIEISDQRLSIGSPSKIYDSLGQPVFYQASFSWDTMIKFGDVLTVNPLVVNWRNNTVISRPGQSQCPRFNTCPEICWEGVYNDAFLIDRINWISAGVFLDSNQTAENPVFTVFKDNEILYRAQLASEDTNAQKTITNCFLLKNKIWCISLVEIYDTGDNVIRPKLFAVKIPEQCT

B1: LN1F9 Fab (Fab, V domains shown)
VH: EVKLVESGGGLVKPGGSLKLSCAASGFSFRNYAMSWVRQSPEKRLEWVAEVSSGGGYTYYPDTVTGRFTISRDNAKNILYLEMSSLRSEDTAMYYCTRDPDSSGYLAWFAYWGQGTLVTVSA
VL: DILLTQSPASLSASVGETVTITCRASENINSYLAWYQQKQGKSPQLLVYNAKTLAEGVPSRFSGSGSDTQFSLKINTLQPEDFGTYYCQHHSGTPYTFGGGTKLEIK
B2: LN1F9 mAb (IgG) (antibody, V domains shown)
VH: B1 VH
VL: B1 VL
B3: S1E2 mAb (IgG) (antibody, V domains shown)
VH: QMQLQESGPGLVKPSQSLSLTCSVTGYSITSGYYWNWIRQFSGNKLEWMGYINHDGSKNYNPSLKNRISITRDTSKNQFFLKLNSVTTEDTATYYCARDYGSYYYPMDYWGQGTSVTVSS
VL: EIVLTQSPPIMSASPGEKVTITCSASSSVTFMHWFQQKPGTSPKLWIFSTSNLASGVPARFSGSGSGTSYSLTISRMEAEDAATYYCQQRSSYPFTFGSGTKLEIK
B4: S1E2 Fab (Fab, V domains shown)
VH: B3 VH
VL: B3 VL
B5: human ephrin-B2 (residues 27-167) (receptor)
chain: SIVLEPIYWNSSNSKFLPGQGLVLYPQIGDKLDIICPKVDSKTVGQYEYYKVYMVDKDQADRCTIKKENTPLLNCAKPDQDIKFTIKFQEFSPNLWGLEFQKNKDYYIISTSNGSLEGLDNQEGGVCQTRAMKILMKVGQD
B6: LN3D3 Fab (Fab, V domains shown)
VH: EVKLEESGPELVKPGASVKMSCKASGYTFTNYVMHWVKQKPGQGLEWIGYVNPYNDGTQYNEKFRDKATLTSDKSSSTVYMELNSLTSEDSAVYYCTRGDYPYWVFEVWGAGTTVTVSS
VL: EIQMTQSPATLSVTPGDSVSLSCRASQSISNNLHWYQQKSHESPRLLIKYASQSISGIPSRFSGSGSGTDFTLSINNLETEDFGMYFCQHSDSWPFTFGSGTKLEIK
B7: LN3D3 mAb (IgG) (antibody, V domains shown)
VH: B6 VH
VL: B6 VL
B8: S2B10 mAb (IgG) (antibody, V domains shown)
VH: QMQLQESGPGLVKPSQSLSLTCTVTGYSITSDYAWNWIRQFPRNKLEWMGFITYSGSTSYNPSLKSRISLTRDTSKNQFFLQLSSVTTEDTATYYCARSGANWDWFAYWGQGTLVTVSA
VL: DIQMTQSPASLAVSLGQRATISCRASESVDNYGNSFMHWYQQKPGQPPKLLIYRASKLESGIPARFSGSGSRTDFTLTINPVEADDVATYHCQQSNEDPWTFGGGTKLEIK
B9: S2B10 Fab (Fab, V domains shown)
VH: B8 VH
VL: B8 VL

Key:
[1] = molecular target: deglycosylated NiVM G head domain without the His-tag (for crystallization) (Nipah virus Malaysia (NP_112027), UniProt Q9IH62); experiment: crystal structure
[2] = molecular target: T2, NiVM G head domain (residues 176-602) (Nipah virus Malaysia (NiVM), UniProt Q9IH62); experiment: BLI
[3] = molecular target: MojV G head domain (residues 176-625) (Mòjiāng virus (YP_009094095), UniProt W8TIR7); experiment: ELISA
[4] = molecular target: NiVM G ectodomain (residues 96-602) (Nipah virus Malaysia (NP_112027), UniProt Q9IH62); experiment: ELISA
[5] = molecular target: HeV G head domain (residues 176-605) (Hendra virus (NP_047112, isolate …, UniProt O89343)); experiment: ELISA
[6] = molecular target: LayV G head domain (residues 176-625) (Langya virus (UUV47206), UniProt A0AAX3C924); experiment: ELISA
[7] = molecular target: T2, NiVM G head domain (residues 176-602); experiment: cryo-EM structure
[8] = molecular target: T1, NiVM G head domain (residues 176-602); experiment: BLI

Sequence of HeV G head domain (residues 176-605) (Hendra virus (O89343 176-604): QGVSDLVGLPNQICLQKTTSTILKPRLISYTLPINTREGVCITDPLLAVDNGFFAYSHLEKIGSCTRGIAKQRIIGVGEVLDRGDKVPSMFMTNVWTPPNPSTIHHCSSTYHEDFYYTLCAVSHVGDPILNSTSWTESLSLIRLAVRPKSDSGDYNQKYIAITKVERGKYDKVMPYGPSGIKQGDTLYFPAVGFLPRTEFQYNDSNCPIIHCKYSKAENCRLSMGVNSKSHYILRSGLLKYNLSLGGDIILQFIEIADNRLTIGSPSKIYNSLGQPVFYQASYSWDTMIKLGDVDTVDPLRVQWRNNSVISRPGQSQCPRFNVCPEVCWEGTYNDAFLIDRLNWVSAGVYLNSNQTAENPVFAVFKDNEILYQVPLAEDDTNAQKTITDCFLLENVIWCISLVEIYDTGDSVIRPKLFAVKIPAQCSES

| Binder | binding result [2] | binding result [3] | binding result [4] | binding result [6] | binding result [7] | also measured |
| --- | --- | --- | --- | --- | --- | --- |
| B1 |  |  |  |  |  | binding result [1]: binds |
| B2 | binds | no binding (tested: 1 μg/mL) | binds | no binding (tested: 1 μg/mL) |  | binding result [5]: binds |
| B3 | binds | no binding (tested: 1 μg/mL) | binds | no binding (tested: 1 μg/mL) |  |  |
| B4 |  |  |  |  | binds |  |
| B5 |  |  |  |  |  | binding result [8]: binds |
| B6 |  |  |  |  | binds |  |
| B7 | binds | no binding (tested: 1 μg/mL) | binds | no binding (tested: 1 μg/mL) |  |  |
| B8 | binds | no binding (tested: 1 μg/mL) | binds | no binding (tested: 1 μg/mL) |  |  |
| B9 |  |  |  |  | binds |  |
